These results are taken from US11160869B2 (priority 2019, dated 2021).

A short description of series [1]: Lyophilization buffer screens: HMW/dimer/monomer by SE-HPLC before and after lyophilization. It is filed as physicochemical. The method, then:
Size exclusion chromatography (SE-HPLC) can be used to characterize the size distribution of the IL-10 delivery construct. The percentage of IL-10 delivery construct found in dimer, monomer, and aggregate forms in a liquid composition or a lyophilized composition if reconstituted in a liquid can be determined by SEC-HPLC (FIG. 34).
Further testing based on the results from the initial liquid formulation screen, initial lyophilization feasibility studies were conducted using the conditions in TABLE 9. Glycine and mannitol, known to be useful in the lyophilization of proteins as […] bulking agents were added to this screen, histidine at pH 7.0 added to provide a more granular evaluation of the effect of pH in the 7.0-7.5 range, and trehalose was added as an option to sucrose as an osmolyte. FIGS. 21 and 22 show the percentage of target constructs in the dimer form before and after incubation at 25° C. for 3 days (FIG. 21) and before and after 5 freeze/thaw cycles (FIG. 22).
Based on the results from this initial study a second lyophilization screen was conducted using the formulations listed in TABLE 10.

The next series relates to DSS-induced colitis. The series can be described thus: DSS-induced colitis dose-response (0.3, 3, 10, 30 mg/kg): in-life, necropsy, histology. It is filed as in vivo, C57BL6/J mice. The method, then: DSS-induction of murine colitis was performed by Bolder BioPATH, Inc. (CO, USA). Female C57BL6/J mice (8-10 weeks old) were given 2.5% dextran sodium sulfate (w/v) (Spectrum, Lot #2DC0020) ad libitum in the drinking water from day 0 through day 7. On day 7, DSS was replaced with water, and the animals were maintained until day 10.
Colon histology was scored based on inflammation, gland loss, erosion and hyperplasia (max of 5 each), and these were totaled in the summary score. […] Five additional parameters (edema, neutrophil infiltration, mucosal thickness, lymphoid aggregate and lymphoid aggregate size) were also quantified. […] These histological results thus indicate a mild degree of local drug efficacy.

A short description of series [2]: Single oral capsule dose in NHP: plasma total IL-10. It is filed as in vivo, Macaca fascicularis. The note with it: for plasma total IL-10 Tmax: oral. An excerpt:
IL-10 delivery constructs (SEQ ID NO: 5) and caffeine were filled by weight into size-1 Capsugel V-Cap Hydroxypropyl Methylcellulose (HPMC) capsules, for oral administration. The capsules were then successively coated in a pan spray coater with three layers of polymers. The first and third layer were thin coatings of HPMC, the first to seal the crease where the capsule shells come together, and the third to minimize sticking of the capsules to each other. The second coating layer was comprised of a 50:50 mixture of Eudragit® (Evonik Industries AG) enteric acrylic polymers FS 30 D and L 30 D-55, designed to dissolve and allow the capsule to open at pH 6.5.
The MSD Small Spot IL-10 plate was washed 3 times with PBST before use. Standards were prepared in Diluent 2 (MSD Cat No R51BB), and samples diluted 2-fold in Diluent 2. Standards and diluted samples were added to the assay plate and the plate incubated for 2 hours at room temperature with shaking. The plate was washed 3 times with PBST and 1× SULFO TAG anti-huIL-10. Antibody was added to the plate before incubation for 1 hour at room temperature with shaking. Following a wash step, 2×MSD Read buffer was added to the wells of the plate and the plate is read in the MSD Sector Imager 600 plate reader. The lower limit of detection of each analyte is defined as 2.5 standard deviation above background.
IL-10 delivery construct dosing at multiple fixed doses in non-naïve adult male Macaca fascicularis was conducted by Valley Biosystems (West Sacramento, Calif.). […] Dosing groups are described in TABLE 45.
Animals were fasted until after the 3 hour blood sample collection, when food was given. For dosing, the animals were manually restrained and a bite block placed between the jaws. A pill gun containing the dosing capsule was inserted into the back of the oral cavity and the capsule released. Up to 4 capsules were administered consecutively and a small amount of water given to induce swallowing. Once the administration of the dose was confirmed, the bite block was removed and the head released.
Blood samples were collected in K2EDTA tubes from each animal pre-dose and at 0.5, 1, 2, 3, 4, 5, 6, 7, 8, and 24 hours post-dose. Animals were returned to home cages following the 2-hour sample collection. Following physical restraint, blood samples were collected via direct venous puncture using a cephalic, femoral or saphenous vein, which were processed to plasma and stored frozen at −60° C. until shipment.

Series [3] can be described thus: Purification with and without sulfitolysis: SEC-HPLC forms, yield and dimer recovery after Capto Q. The note with it: for Dimer Purity after Capto Q Chromatography: Capto Q load 1680 mg; for Dimer Purity: after Capto Q chromatography. The method, then: Refolding in both processes was carried out at 4° C. The refolding solution used in both processes contained 1 mM reduced glutathione, 0.5 mM oxidized glutathione, 1M Arginine-HCl, 250 mM sucrose, 100 mM Tris pH 8.5 at 4° C., and 2 mM EDTA.
For orientation: Size exclusion chromatography separates by hydrodynamic size, large species first.

Where [4] appears, read: secondary formulation buffer screen, 0.3% Poloxamer.
The mark [5] stands for this setting: No Sulfitolysis of SIB (2x UF/DF at 4° C.), SEC-HPLC before AEX.
Where [6] appears, read: No Sulfitolysis of SIB (2x UF/DF for 66 h RT), SEC-HPLC before AEX.
[7] abbreviates: No Sulfitolysis of SIB (97 mL Capto Q).
The mark [8] stands for this setting: Sulfitolysis of SIB (97 mL Capto Q).
[9] abbreviates: Sulfitolysis of SIB (TFF-2 for 20 h at RT), SEC-HPLC after UF/DF, before AEX.

B1: IL-10 delivery construct: recombinant homodimeric fusion protein: N-terminal methionine, cholix386 domain, polyGlySer spacer, recombinant human IL-10 (protein)
chain: MVEEALNIFDECRSPCSLTPEPGKPIQSKLSIPSDVVLDEGVLYYSMTINDEQNDIKDEDKGESIITIGEFATVRATRHYVNQDAPFGVIHLDITTENGTKTYSYNRKEGEFAINWLVPIGEDSPASIKISVDELDQQRNIIEVPKLYSIDLDNQTLEQWKTQGNVSFSVTRPEHNIAISWPSVSYKAAQKEGSRHKRWAHWHTGLALCWLVPMDAIYNYITQQNCTLGDNWFGGSYETVAGTPKVITVKQGIEQKPVEQRIHFSKGNAMSALAAHRVCGVPLETLARSRKPRDLTDDLSCAYQAQNIVSLFVATRILFSHLDSVFTLNLDEQEPEVAERLSDLRRINENNPGMVTQVLTVARQIYNDYVTHHPGLTPEQTSAGAQAGGGGSGGGGSGGGGSPGQGTQSENSCTHFPGNLPNMLRDLRDAFSRVKTFFQMKDQLDNLLLKESLLEDFKGYLGCQALSEMIQFYLEEVMPQAENQDPDIKAHVNSLGENLKTLRLRLRRCHRFLPCENKSKAVEQVKNAFNKLQEKGIYKAMSEFDIFINYIEAYMTMKIRN
modifications: homodimer
For B1, the “stability with respect to aggregation” value in series [1] (initial lyophilization feasibility study, conditions of TABLE 9) was “more stable at pH7.5 with sucrose and glycine”. In series [1] (setting [4]), the “Pre-Lyophilization (%) Dimer” value stood at 89.2%. Further, the “Pre-Lyophilization (%) HMW” value in series [1] (setting [4]) is on record as 2.6%. For the same molecule, in series [1] (setting [4]), the “Pre-Lyophilization (%) Monomer” value was 8.2%. Further, in the series on DSS-induced colitis (30 mg/kg, relative to Vehicle), the “edema width, mucosal thickness, hyperplasia in the mid region” value is “significantly improved”. The colon length result in the series on DSS-induced colitis (10 and 30 mg/kg, p<0.05 vs vehicle) is “Significant improvement in colon length”. Also, the DSS-induced weight loss entry in the series on DSS-induced colitis (construct 30 mg/kg, CsA 75 mg/kg, q.d. oral) is “significantly reduced DSS-induced weight loss”. Moreover, the “summed histology score (inflammation, gland loss, erosion, hyperplasia)” value with DSS-induced colitis (mouse, in vivo) is listed as “did not reveal any significant improvements”. In addition, the “plasma total IL-10 Tmax” value in series [2] (1 mg) turned out to be 4 h; in series [2] (4 mg) it was 3 h; in series [2] (20.5 mg), 2 h; in series [2] (82 mg), 2 h. Besides, the “time at which plasma total IL-10 had returned to baseline” value in series [2] (all doses) came out at 6 hours post-dose. For the same molecule, the Aggregate % in series [3] (setting [5]) amounted to 36%; in series [3] (setting [6]), 57%; in series [3] (setting [9]), 68%. In addition, the Monomer % in series [3] (setting [5]) came out at 22%; in series [3] (setting [6]), 11%; in series [3] (setting [9]), 8%. Also, the “Dimer Purity after Capto Q Chromatography” value in series [3] (setting [7]) is 84%; in series [3] (setting [8]), 74%. In addition, the figures for the “Dimer Purity” value in series [3] (setting [7]), in series [3] (setting [8]) and in series [3] (Sulfitolysis of SIB (average of 3)) were 84%, 74% and 82-83%, respectively.
